In article PMC7335187 (2020):

B1: Atg40^234–252 peptide [S. cerevisiae] / Atg8 (1-116) K26P [S. cerevisiae] (parent complex)
chain 1: TSTEFPNDYDFMEDILDET
chain 2: MKSTFKSEYPFEKRKAESERIADRFPNRIPVICEKAEKSDIPEIDKRKYLVPADLTVGQFVYVIRKRIMLPPEKAIFIFVNDTLPPTAALMSAIYQEHKDKDGFLYVTYSGENTFG

Variants of: B1
Assay: ITC

Variant | Kd
chain 2 R67A | 24.8 µM

Variants of: B1
Assay: ITC
Remark: another data set of the same source

Variant | Kd
chain 1 Y9A | 32.7 µM
chain 1 F5A | 4.31 µM
